Reference: IntAct's records for PubMed 26455797

B1: CCAAT/enhancer-binding protein alpha (Homo sapiens), P49715-1 (parent)
chain: MESADFYEAEPRPPMSSHLQSPPHAPSSAAFGFPRGAGPAQPPAPPAAPEPLGGICEHETSIDISAYIDPAAFNDEFLADLFQHSRQQEKAKAAVGPTGGGGGGDFDYPGAPAGPGGAVMPGGAHGPPPGYGCAAAGYLDGRLEPLYERVGAPALRPLVIKQEPREEDEAKQLALAGLFPYQPPPPPPPSHPHPHPPPAHLAAPHLQFQIAHCGQTTMHLQPGHPTPPPTPVPSPHPAPALGAAGLPGPGSALKGLGAAHPDLRASGGSGAGKAKKSVDKNSNEYRVRRERNNIAVRKSRDKAKQRNVETQQKVLELTSDNDRLRKRVEQLSRELDTLRGIFRQLPESSLVKAMGNCA
partner: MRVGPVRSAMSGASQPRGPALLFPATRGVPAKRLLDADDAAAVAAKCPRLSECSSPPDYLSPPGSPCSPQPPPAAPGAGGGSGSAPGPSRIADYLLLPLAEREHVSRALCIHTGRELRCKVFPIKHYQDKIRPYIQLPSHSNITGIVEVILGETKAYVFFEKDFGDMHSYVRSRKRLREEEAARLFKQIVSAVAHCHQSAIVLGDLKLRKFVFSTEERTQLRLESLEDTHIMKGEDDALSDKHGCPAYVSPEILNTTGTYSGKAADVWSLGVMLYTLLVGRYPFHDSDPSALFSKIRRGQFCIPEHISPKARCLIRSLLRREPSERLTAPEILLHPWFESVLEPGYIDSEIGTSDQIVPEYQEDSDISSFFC

Variants of: B1
Settings: with TRIB1, Q96RU8-1

Effect of a mutation on the interaction, decreasing interaction strength:
I55A
I64D
Y67A
S61A
E59A
I68D
I62D
